# In patent US11701440B2, “Modified antibody and radioactive metal-labelled antibody” (NIHON MEDI-PHYSICS CO., LTD., priority 2018, dated 2023):
# Experiment: Animal Experiment (1): radioactivity distribution of 111In-labeled NGA in organs after tail vein administration
# Protocol: Five mice per group were slaughtered 5 minutes or 1 hour after the administration, the blood and organs of interest were recovered, and after measuring the organ weight, the radioactivity was measured with an auto-well gamma counter.
# [1] = mouse, in vivo, iv, 11.1 kBq/8 ug protein/100 uL/mouse, 5 min
# [2] = mouse, in vivo, iv, 11.1 kBq/8 ug protein/100 uL/mouse, 1 h
# [3] = 5 minutes after the administration, tail vein, male ddY mouse
# [4] = 1 hour after the administration, tail vein, male ddY mouse
substance,measurement,setting,value
^111In-DO3ABn-Phe-Lys-NGA,radioactivity (% ID) Blood,[1],0.1 ± 0.0 % ID
same,radioactivity (% ID) Kidney,[1],0.2 ± 0.0 % ID
same,radioactivity (% ID) Liver,[1],91.1 ± 6.2 % ID
same,radioactivity (% ID) Lung,[1],0.1 ± 0.0 % ID
same,radioactivity (% ID) Small intestine,[1],0.1 ± 0.1 % ID
same,radioactivity (% ID) Spleen,[1],0.2 ± 0.0 % ID
same,radioactivity (% ID) Stomach,[1],0.1 ± 0.1 % ID
same,radioactivity (% ID) Kidney,[2],0.9 ± 0.3 % ID
same,radioactivity (% ID) Liver,[2],49.5 ± 5.6 % ID
same,radioactivity (% ID) Lung,[2],0.1 ± 0.1 % ID
same,radioactivity (% ID) Small intestine,[2],27.8 ± 6.5 % ID
same,radioactivity (% ID) Spleen,[2],0.2 ± 0.1 % ID
same,radioactivity (% ID) Stomach,[2],1.1 ± 0.7 % ID
^111In-DO3ABn-Gly-Lys-NGA,radioactivity (% ID) Blood,[3],0.1 ± 0.2 % ID
same,radioactivity (% ID) Heart,[3],0.0 ± 0.0 % ID
same,radioactivity (% ID) Kidney,[3],0.1 ± 0.0 % ID
same,radioactivity (% ID) Liver,[3],89.5 ± 3.4 % ID
same,radioactivity (% ID) Lung,[3],0.1 ± 0.1 % ID
same,radioactivity (% ID) Pancreas,[3],0.0 ± 0.0 % ID
same,radioactivity (% ID) Small intestine,[3],0.1 ± 0.1 % ID
same,radioactivity (% ID) Spleen,[3],0.2 ± 0.0 % ID
same,radioactivity (% ID) Stomach,[3],0.1 ± 0.1 % ID
same,radioactivity (% ID) Blood,[4],0.0 ± 0.0 % ID
same,radioactivity (% ID) Heart,[4],0.0 ± 0.0 % ID
same,radioactivity (% ID) Kidney,[4],0.2 ± 0.0 % ID
same,radioactivity (% ID) Liver,[4],89.1 ± 1.2 % ID
same,radioactivity (% ID) Lung,[4],0.0 ± 0.0 % ID
same,radioactivity (% ID) Pancreas,[4],0.0 ± 0.0 % ID
same,radioactivity (% ID) Small intestine,[4],2.5 ± 0.7 % ID
same,radioactivity (% ID) Spleen,[4],0.2 ± 0.0 % ID
same,radioactivity (% ID) Stomach,[4],0.1 ± 0.1 % ID
